Measured values: article doi:10.1101/2020.12.29.424679 (bioRxiv, 2020)

B2: Armadillo domain of HSF2BP (ARM, aa 122 to aa 334) (domain or fragment)
chain: EMGAAACTLLWGVSSSEEVVKAILGGDKALKFFSITGQTMESFVKSLDGDVQELDSDESQFVFALAGIVTNVAAIACGREFLVNSSRVLLDTILQLLGDLKPGQCTKLKVLMLMSLYNVSINLKGLKYISESPGFIPLLWWLLSDPDAEVCLHVLRLVQSVVLEPEVFSKSASEFRSSLPLQRILAMSKSRNPRLQTAAQELLEDLRTLEHNV

Key:
[1] = molecular target: Mouse HSF2BP-GFP (mouse (knock-in allele in mES cells)) (UniProt Q9D4G2); assay: co-IP
[2] = molecular target: T1, Human full length HSF2BP WT (human, UniProt O75031 1-334); assay: ITC
T1 sequence: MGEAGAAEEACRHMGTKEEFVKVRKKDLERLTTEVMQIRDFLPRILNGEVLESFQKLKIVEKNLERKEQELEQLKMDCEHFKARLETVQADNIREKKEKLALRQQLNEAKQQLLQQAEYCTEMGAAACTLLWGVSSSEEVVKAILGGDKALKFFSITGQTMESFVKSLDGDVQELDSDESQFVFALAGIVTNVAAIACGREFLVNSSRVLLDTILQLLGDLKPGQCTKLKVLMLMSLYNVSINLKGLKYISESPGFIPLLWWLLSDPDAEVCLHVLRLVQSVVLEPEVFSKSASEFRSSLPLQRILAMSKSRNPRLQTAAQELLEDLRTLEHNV

[3] = molecular target: B2; assay: ITC
[4] = molecular target: the molecule itself; assay: SEC-MALS
[5] = molecular target: the molecule itself; assay: SEC-MALS + other: SEC-SAXS
[6] = molecular target: Mouse BRCA2-GFP Δ12 (mouse (knock-in allele in mES cells)) (UniProt P97929); assay: co-IP
Chain of Mouse BRCA2-GFP Δ12 (mouse (knock-in allele in mES cells)) (P97929 whole entry, stated change not applied): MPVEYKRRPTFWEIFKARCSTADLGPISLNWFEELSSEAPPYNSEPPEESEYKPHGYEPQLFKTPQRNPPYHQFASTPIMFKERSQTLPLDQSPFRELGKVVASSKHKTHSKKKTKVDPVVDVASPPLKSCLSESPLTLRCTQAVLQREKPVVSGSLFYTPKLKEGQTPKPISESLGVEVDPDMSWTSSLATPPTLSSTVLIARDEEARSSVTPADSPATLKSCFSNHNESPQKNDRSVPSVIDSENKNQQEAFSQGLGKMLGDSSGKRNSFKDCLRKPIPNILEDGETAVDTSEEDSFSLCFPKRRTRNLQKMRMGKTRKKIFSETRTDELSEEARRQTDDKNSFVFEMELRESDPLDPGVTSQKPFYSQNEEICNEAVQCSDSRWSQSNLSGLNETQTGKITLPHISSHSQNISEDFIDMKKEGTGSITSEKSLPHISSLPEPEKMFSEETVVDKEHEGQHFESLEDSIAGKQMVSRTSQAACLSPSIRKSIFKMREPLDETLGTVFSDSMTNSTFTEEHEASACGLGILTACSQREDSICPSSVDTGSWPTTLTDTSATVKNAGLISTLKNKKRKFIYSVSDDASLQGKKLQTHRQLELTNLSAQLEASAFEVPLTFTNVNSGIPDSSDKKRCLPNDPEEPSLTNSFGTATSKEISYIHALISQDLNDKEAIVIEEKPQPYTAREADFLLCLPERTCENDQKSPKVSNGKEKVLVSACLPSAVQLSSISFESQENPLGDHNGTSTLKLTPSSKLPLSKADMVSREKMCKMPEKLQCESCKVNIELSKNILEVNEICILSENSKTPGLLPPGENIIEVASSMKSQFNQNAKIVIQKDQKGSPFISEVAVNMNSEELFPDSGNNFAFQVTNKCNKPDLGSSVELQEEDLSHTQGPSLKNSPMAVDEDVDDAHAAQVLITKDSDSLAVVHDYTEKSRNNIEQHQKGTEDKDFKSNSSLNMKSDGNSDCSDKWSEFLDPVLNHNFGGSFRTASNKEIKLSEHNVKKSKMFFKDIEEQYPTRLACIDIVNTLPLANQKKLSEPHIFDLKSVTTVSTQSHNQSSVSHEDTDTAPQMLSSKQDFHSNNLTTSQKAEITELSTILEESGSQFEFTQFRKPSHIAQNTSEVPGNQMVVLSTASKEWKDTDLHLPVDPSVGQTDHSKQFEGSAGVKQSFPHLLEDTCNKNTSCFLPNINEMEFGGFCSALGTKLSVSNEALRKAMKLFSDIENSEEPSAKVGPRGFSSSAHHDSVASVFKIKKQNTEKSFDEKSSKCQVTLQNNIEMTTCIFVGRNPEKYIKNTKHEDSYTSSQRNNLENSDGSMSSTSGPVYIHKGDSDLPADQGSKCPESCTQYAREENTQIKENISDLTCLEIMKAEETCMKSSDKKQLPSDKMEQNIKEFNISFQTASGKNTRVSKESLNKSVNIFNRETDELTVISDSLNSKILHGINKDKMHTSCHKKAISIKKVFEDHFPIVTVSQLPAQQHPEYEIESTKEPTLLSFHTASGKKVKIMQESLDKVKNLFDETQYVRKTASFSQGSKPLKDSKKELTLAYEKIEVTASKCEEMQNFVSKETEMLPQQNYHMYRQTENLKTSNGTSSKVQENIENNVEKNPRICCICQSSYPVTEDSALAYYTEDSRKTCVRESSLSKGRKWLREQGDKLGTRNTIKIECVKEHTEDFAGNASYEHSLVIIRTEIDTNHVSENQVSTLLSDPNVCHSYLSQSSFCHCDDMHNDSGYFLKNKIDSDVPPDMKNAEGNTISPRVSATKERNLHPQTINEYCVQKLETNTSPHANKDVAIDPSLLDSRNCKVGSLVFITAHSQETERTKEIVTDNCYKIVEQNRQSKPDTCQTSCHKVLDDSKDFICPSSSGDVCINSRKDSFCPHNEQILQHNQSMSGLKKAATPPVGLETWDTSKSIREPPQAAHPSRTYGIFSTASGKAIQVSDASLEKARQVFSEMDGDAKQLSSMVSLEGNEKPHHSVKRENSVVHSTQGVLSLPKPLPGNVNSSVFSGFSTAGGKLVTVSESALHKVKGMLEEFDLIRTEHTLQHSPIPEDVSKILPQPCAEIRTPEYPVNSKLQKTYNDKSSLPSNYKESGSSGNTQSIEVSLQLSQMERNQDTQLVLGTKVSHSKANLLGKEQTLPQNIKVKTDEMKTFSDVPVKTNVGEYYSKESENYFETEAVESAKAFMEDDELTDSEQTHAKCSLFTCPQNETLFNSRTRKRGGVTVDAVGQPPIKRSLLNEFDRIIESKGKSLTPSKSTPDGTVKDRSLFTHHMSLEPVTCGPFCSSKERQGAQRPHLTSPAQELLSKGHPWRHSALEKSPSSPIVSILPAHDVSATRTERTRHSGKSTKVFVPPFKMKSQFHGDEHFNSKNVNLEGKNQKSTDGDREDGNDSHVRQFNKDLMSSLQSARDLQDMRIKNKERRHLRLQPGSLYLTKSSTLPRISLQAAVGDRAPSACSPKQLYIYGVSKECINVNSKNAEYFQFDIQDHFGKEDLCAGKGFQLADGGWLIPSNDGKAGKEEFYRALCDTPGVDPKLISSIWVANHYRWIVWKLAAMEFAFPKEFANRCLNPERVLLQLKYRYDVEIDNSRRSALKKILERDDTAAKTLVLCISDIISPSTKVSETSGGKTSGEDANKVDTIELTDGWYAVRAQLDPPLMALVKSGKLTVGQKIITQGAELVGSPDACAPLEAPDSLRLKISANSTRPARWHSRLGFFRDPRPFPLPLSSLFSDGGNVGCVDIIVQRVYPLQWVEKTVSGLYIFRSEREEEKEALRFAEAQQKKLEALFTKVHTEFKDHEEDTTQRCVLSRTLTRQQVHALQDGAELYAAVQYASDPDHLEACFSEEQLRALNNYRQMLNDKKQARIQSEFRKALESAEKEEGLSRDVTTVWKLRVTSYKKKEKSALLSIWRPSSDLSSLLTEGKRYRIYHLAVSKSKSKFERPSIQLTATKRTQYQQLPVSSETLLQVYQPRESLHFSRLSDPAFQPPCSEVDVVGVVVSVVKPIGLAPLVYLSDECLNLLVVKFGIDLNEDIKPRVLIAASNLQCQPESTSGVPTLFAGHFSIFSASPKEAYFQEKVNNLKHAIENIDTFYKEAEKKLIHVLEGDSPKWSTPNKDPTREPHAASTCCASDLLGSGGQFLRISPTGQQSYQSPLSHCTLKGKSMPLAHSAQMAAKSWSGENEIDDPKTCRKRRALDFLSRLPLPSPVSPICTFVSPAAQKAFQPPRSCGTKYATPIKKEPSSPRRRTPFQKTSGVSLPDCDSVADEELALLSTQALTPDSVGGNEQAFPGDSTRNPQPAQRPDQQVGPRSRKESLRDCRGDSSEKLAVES

## Mouse BRCA2-Δ12 (from UniProt P97929 1-3329) (natural protein)
[1]
  percent loss of co-precipitation against wild-type BRCA2: 97 to 99%

## BRCA2 peptide F15XΔ12 (D2312-E2342)
[2]
  fold weaker affinity than HSF2BP for F0: 1000 fold
  stoichiometry N: 1

B1: Human BRCA2 fragment F0 (S2213-Q2342, C2332T) (domain or fragment)
chain: STYSKDSENYFETEAVEIAKAFMEDDELTDSKLPSHATHSLFTCPENEEMVLSNSRIGKRRGEPLILVGEPSIKRNLLNEFDRIIENQEKSLKASKSTPDGTIKDRRLFMHHVSLEPITTVPFRTTKERQ
[2]
  Kd: 1 nM
  fold tighter binding than ARM to F0: ~25 fold
  stoichiometry N: 0.5
[3]
  stoichiometry N: 0.5

## B2
[4]
  stoichiometry N: 2
[5]
  stoichiometry N: 4

B3: Human BRCA2 fragment FNMR (S2252-Q2342) (domain or fragment)
chain: SLFTCPENEEMVLSNSRIGKRRGEPLILVGEPSIKRNLLNEFDRIIENQEKSLKASKSTPDGTIKDRRLFMHHVSLEPITTVPFRTTKERQ
[3]
  Kd: ~10 nM
  fold higher affinity than ARM for F0: ~3 fold

B4: Human BRCA2 fragment F15X (N2291-Q2342) (peptide)
chain: NEFDRIIENQEKSLKASKSTPDGTIKDRRLFMHHVSLEPITTVPFRTTKERQ
[3]
  Kd: ~10 nM
  fold higher affinity than ARM for F0: ~3 fold

B5: Mouse HSF2BP, natively expressed in ES cells (natural protein)
chain: MAATVGDGSGTEEACRNMESKEEFVKVRKKDLERLTTEVMQIRDFLPRILNGELLESFQKLKMVEKNLERKEQELEQLIMDREHFKARLETAQADSGREKKEKLALRQQLNEAKQQLLQQAEYCTQMGAVTCTLLWGVSSSEEVVKTILGGDKALKFFNITGQTMESFVKSLDGDVKEVDSDENQFVFALAGIVTNVAAIACGREFLVNSSRVLLDTMLQLLGDLKPGQCTKLKVLMLMSLYNVSINSKGLKYITESPGFIPLLWWLLSDPDAEVCLHTLRLIQSVVLEPDVFSKVASELQSSLPLQRILAMSKSRNSHLQSAAQELLEDLRALDCNV
[6]
  percent loss of co-precipitation against full-length BRCA2-GFP: 95%
